{"source": "paper PMC2858264", "proteins": {"B1": {"name": "rR-HPCDH1 (Xanthobacter versatilis) (protein)", "chain": "SRVAIVTGASSGNGLAIATRFLARGDRVAALDLSAETLEETARTHWHAYADKVLRVRADVADEGDVNAAIAATMEQFGAIDVLVNNAGITGNSEAGVLHTTPVEQFDKVMAVNVRGIFLGCRAVLPHMLLQGAGVIVNIASVASLVAFPGRSAYTTSKGAVLQLTKSVAVDYAGSGIRCNAVCPGMIETPMTQWRLDQPELRDQVLARIPQKEIGTAAQVADAVMFLAGEDATYVNGAALVMDGAYTAI"}, "B2": {"name": "rS-HPCDH1 (Xanthobacter versatilis) (protein)", "chain": "MLDAEVIAITGGAAGIGLAVAHAAIRAGARVALIDRDGACAQRAAAEFGAAAWGVGADVTDEAAITAAMAGAQRALGPLTGLVNNAGIAGFGSVHATEVETWSRIMAVNVTGTFLASKAALFGMLERGRGAIVNFGSVAGLVGIPTMAAYCAAKGAVVNLTRQMAADYSGRGIRVNVVCPGTVAGTDMGRQLLGTDCDPELEARRLAKYPMGRFGTPEDIAEAAVFLLSTKAAFVTGSVLAVDGGMTAI"}}, "test_in_all_cases": "purified protein", "key": {"[1]": {"substrate": "O=S(=O)(O)CCSCCO", "format": "biochemical, Xanthobacter versatilis", "details": "oxidation, 5 mM NAD+, pH 7.5, 30 °C"}, "[2]": {"substrate": "CC(=O)CSCCS(=O)(=O)O", "format": "biochemical, Xanthobacter versatilis", "details": "reduction, 0.17 mM NADH, pH 7.5, 30 °C"}, "[3]": {"substrate": "C[C@@H](O)CSCCS(=O)(=O)O", "format": "biochemical, Xanthobacter versatilis", "details": "oxidation, 10 mM NAD+, pH 7.5, 30 °C"}, "[4]": {"substrate": "C[C@H](O)CSCCS(=O)(=O)O", "format": "biochemical, Xanthobacter versatilis", "details": "oxidation, 10 mM NAD+, pH 7.5, 30 °C"}, "[5]": {"substrate": "CC(=O)CSCCS(=O)(=O)O", "details": "reduction, 0.17 mM NADH, pH 7.5, 30 °C"}, "[6]": {"substrate": "C[C@@H](O)CSCCS(=O)(=O)O", "details": "oxidation, 10 mM NAD+, pH 7.5, 30 °C"}, "[7]": {"substrate": "C[C@H](O)CSCCS(=O)(=O)O", "details": "oxidation, 10 mM NAD+, pH 7.5, 30 °C"}}}
{"protein": "B1", "values": [{"measurement": "Km", "setting": "[1]", "result": "960 ± 100", "unit": "µM"}, {"measurement": "Km", "setting": "[2]", "result": "68 ± 10", "unit": "µM"}, {"measurement": "Km", "setting": "[3]", "result": "96 ± 7", "unit": "µM"}, {"measurement": "kcat", "setting": "[3]", "result": "48 ± 1", "unit": "s⁻¹"}, {"measurement": "kcat/Km", "setting": "[3]", "result": 500000, "unit": "M⁻¹ s⁻¹"}, {"measurement": "Km", "setting": "[4]", "result": "220 ± 70", "unit": "µM"}, {"measurement": "kcat", "setting": "[4]", "result": "0.12 ± 0.01", "unit": "s⁻¹"}, {"measurement": "kcat/Km", "setting": "[4]", "result": 530, "unit": "M⁻¹ s⁻¹"}]}
{"protein": "B2", "values": [{"measurement": "Km", "setting": "[5]", "result": "240 ± 10", "unit": "µM"}, {"measurement": "kcat", "setting": "[5]", "result": 20, "unit": "s⁻¹"}, {"measurement": "kcat/Km", "setting": "[5]", "result": 83000, "unit": "M⁻¹ s⁻¹"}, {"measurement": "Km", "setting": "[6]", "result": "5200 ± 300", "unit": "µM"}, {"measurement": "kcat", "setting": "[6]", "result": 2.4, "unit": "s⁻¹"}, {"measurement": "kcat/Km", "setting": "[6]", "result": 460, "unit": "M⁻¹ s⁻¹"}, {"measurement": "Km", "setting": "[7]", "result": "220 ± 20", "unit": "µM"}, {"measurement": "kcat", "setting": "[7]", "result": 28, "unit": "s⁻¹"}, {"measurement": "kcat/Km", "setting": "[7]", "result": 130000, "unit": "M⁻¹ s⁻¹"}]}
